The results in this text go back to PMC4216083.

This experiment addresses Toll-like receptor 4 (human (endogenous in monocyte-derived DCs)) (UniProt O00206).
Sequence of UniProt O00206 (O00206 24-839): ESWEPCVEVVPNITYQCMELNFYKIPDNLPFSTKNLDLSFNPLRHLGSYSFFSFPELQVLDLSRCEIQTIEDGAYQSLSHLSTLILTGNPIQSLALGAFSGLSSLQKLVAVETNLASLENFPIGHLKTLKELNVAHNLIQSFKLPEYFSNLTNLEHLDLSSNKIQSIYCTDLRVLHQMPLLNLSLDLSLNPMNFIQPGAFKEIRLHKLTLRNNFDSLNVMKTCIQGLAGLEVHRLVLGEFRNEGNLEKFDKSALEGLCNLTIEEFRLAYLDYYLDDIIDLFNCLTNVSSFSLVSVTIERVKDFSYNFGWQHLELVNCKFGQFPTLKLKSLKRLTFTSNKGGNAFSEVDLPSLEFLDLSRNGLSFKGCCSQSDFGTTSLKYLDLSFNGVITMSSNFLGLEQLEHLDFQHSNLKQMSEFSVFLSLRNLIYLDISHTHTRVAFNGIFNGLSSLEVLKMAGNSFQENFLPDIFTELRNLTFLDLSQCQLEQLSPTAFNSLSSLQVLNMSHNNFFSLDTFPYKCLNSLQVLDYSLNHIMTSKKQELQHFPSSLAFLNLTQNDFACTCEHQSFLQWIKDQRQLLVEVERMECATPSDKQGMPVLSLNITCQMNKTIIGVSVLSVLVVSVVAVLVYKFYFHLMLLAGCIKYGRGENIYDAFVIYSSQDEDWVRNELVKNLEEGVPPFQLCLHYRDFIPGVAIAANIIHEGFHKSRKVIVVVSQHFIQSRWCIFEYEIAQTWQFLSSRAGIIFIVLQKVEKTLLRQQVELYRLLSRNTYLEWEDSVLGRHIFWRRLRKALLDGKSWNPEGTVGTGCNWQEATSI

For the substance “Enterovirus 71 virus-like particles (complex)”, the decrease of EV71 VLP (10 µg/mL)-induced IL-10 production by human DCs after pre-incubation with anti-TLR4 mAb (HTA125, 20 µg/mL), ELISA is 41%; the decrease of EV71 VLP (10 µg/mL)-induced IL-12 p40 production by human DCs after pre-incubation with anti-TLR4 mAb (HTA125, 20 µg/mL), ELISA was determined as 48%; the decrease of EV71 VLP (10 µg/mL)-induced IL-12 p70 production by human DCs after pre-incubation with anti-TLR4 mAb (HTA125, 20 µg/mL), ELISA stood at 68%.
